# Reference: PMC12578939
# Target: microtubules polymerised from bovine brain tubulin (bovine) (UniProt Q6B856)
# Assay: TIRF microscopy of binding to immobilised microtubules
substance,measurement,value
augmin octamer lacking the N-terminal CH domain of Haus6 (residues 1-160) (from UniProt Q6DCY9;Q0IHJ3) (complex),reduction in MT binding against wildtype augmin,50%
